The text below walks through data of patent publication US12679878B2, “CRF2 receptor agonists and their use in therapy” (SANOFI, priority 2020, dated 2026).

The target of this test is human corticotropin-releasing factor 2α (CRF2 α receptor) (human), Q13324. The experiment in a line: cell-based or functional assay.

Starred links: 1 amine or outer side, 2 acyl side, 3 side chain; linkers in the order of their positions; H or OH if unused. Non-standard residues stand in square brackets, D forms with d. Groups on a side chain read outwards from the residue. No end group written: not given here. *: point of attachment. C18 diacid = O=C(O)CCCCCCCCCCCCCCCCC(=O)*; γGlu = O=C(O)[C@H](CCC(=O)[*:2])N[*:1]; AEEA = NCCOCCOCC(=O)O; Aib = CC(C)(N)C(=O)O

human corticotropin-releasing factor 2α (CRF2 α receptor) (human), Q13324, sequence (Q13324 20-411): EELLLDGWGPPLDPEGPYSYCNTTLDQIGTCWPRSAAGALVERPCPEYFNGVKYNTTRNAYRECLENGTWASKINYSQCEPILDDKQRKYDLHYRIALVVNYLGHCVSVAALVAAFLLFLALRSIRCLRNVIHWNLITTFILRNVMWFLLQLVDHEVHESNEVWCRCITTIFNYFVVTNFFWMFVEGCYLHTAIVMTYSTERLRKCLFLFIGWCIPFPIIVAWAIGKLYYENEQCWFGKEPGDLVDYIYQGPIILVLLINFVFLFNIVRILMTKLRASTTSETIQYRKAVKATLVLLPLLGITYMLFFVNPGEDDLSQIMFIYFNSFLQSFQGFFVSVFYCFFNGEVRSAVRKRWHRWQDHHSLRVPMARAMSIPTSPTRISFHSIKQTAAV

B1: SEQ ID NO: 125 (peptide)
peptide: IVLSLDVPIKLK([AEEA-AEEA-γGlu-C18 diacid])QILLEQARQK[Aib]QREQAEKNKRILERV-NH2
modifications: N-terminus assumed
SMILES: CC[C@H](C)[C@H](N)C(=O)N[C@H](C(=O)N[C@@H](CC(C)C)C(=O)N[C@@H](CO)C(=O)N[C@@H](CC(C)C)C(=O)N[C@@H](CC(=O)O)C(=O)N[C@H](C(=O)N1CCC[C@H]1C(=O)N[C@H](C(=O)N[C@@H](CCCCN)C(=O)N[C@@H](CC(C)C)C(=O)N[C@@H](CCCCNC(=O)COCCOCCNC(=O)COCCOCCNC(=O)CC[C@H](NC(=O)CCCCCCCCCCCCCCCCC(=O)O)C(=O)O)C(=O)N[C@@H](CCC(N)=O)C(=O)N[C@H](C(=O)N[C@@H](CC(C)C)C(=O)N[C@@H](CC(C)C)C(=O)N[C@@H](CCC(=O)O)C(=O)N[C@@H](CCC(N)=O)C(=O)N[C@@H](C)C(=O)N[C@@H](CCCNC(=N)N)C(=O)N[C@@H](CCC(N)=O)C(=O)N[C@@H](CCCCN)C(=O)NC(C)(C)C(=O)N[C@@H](CCC(N)=O)C(=O)N[C@@H](CCCNC(=N)N)C(=O)N[C@@H](CCC(=O)O)C(=O)N[C@@H](CCC(N)=O)C(=O)N[C@@H](C)C(=O)N[C@@H](CCC(=O)O)C(=O)N[C@@H](CCCCN)C(=O)N[C@@H](CC(N)=O)C(=O)N[C@@H](CCCCN)C(=O)N[C@@H](CCCNC(=N)N)C(=O)N[C@H](C(=O)N[C@@H](CC(C)C)C(=O)N[C@@H](CCC(=O)O)C(=O)N[C@@H](CCCNC(=N)N)C(=O)N[C@H](C(N)=O)C(C)C)[C@@H](C)CC)[C@@H](C)CC)[C@@H](C)CC)C(C)C)C(C)C
Molecule B1 showed an EC50 [nM], 0% HSA of 0.47 nM and an EC50 [nM], 0.1% HSA of 19.9 nM.

B2: SEQ ID NO: 128 (peptide)
peptide: IVLSLD[dV]PIKLK([AEEA-AEEA-γGlu-C18 diacid])QILLKQARQK[Aib]QREQAEKNKRILERV-NH2
modifications: N-terminus assumed
SMILES: CC[C@H](C)[C@H](N)C(=O)N[C@H](C(=O)N[C@@H](CC(C)C)C(=O)N[C@@H](CO)C(=O)N[C@@H](CC(C)C)C(=O)N[C@@H](CC(=O)O)C(=O)N[C@@H](C(=O)N1CCC[C@H]1C(=O)N[C@H](C(=O)N[C@@H](CCCCN)C(=O)N[C@@H](CC(C)C)C(=O)N[C@@H](CCCCNC(=O)COCCOCCNC(=O)COCCOCCNC(=O)CC[C@H](NC(=O)CCCCCCCCCCCCCCCCC(=O)O)C(=O)O)C(=O)N[C@@H](CCC(N)=O)C(=O)N[C@H](C(=O)N[C@@H](CC(C)C)C(=O)N[C@@H](CC(C)C)C(=O)N[C@@H](CCCCN)C(=O)N[C@@H](CCC(N)=O)C(=O)N[C@@H](C)C(=O)N[C@@H](CCCNC(=N)N)C(=O)N[C@@H](CCC(N)=O)C(=O)N[C@@H](CCCCN)C(=O)NC(C)(C)C(=O)N[C@@H](CCC(N)=O)C(=O)N[C@@H](CCCNC(=N)N)C(=O)N[C@@H](CCC(=O)O)C(=O)N[C@@H](CCC(N)=O)C(=O)N[C@@H](C)C(=O)N[C@@H](CCC(=O)O)C(=O)N[C@@H](CCCCN)C(=O)N[C@@H](CC(N)=O)C(=O)N[C@@H](CCCCN)C(=O)N[C@@H](CCCNC(=N)N)C(=O)N[C@H](C(=O)N[C@@H](CC(C)C)C(=O)N[C@@H](CCC(=O)O)C(=O)N[C@@H](CCCNC(=N)N)C(=O)N[C@H](C(N)=O)C(C)C)[C@@H](C)CC)[C@@H](C)CC)[C@@H](C)CC)C(C)C)C(C)C
The molecule B2 had an EC50 [nM], 0% HSA of 0.64 nM and an EC50 [nM], 0.1% HSA of 20.1 nM.

B3: SEQ ID NO: 124 (peptide)
peptide: IVLSLDVPIKLK([AEEA-AEEA-γGlu-C18 diacid])QILLKQARQK[Aib]QRAQAEKNKRILERV-NH2
modifications: N-terminus assumed
SMILES: CC[C@H](C)[C@H](N)C(=O)N[C@H](C(=O)N[C@@H](CC(C)C)C(=O)N[C@@H](CO)C(=O)N[C@@H](CC(C)C)C(=O)N[C@@H](CC(=O)O)C(=O)N[C@H](C(=O)N1CCC[C@H]1C(=O)N[C@H](C(=O)N[C@@H](CCCCN)C(=O)N[C@@H](CC(C)C)C(=O)N[C@@H](CCCCNC(=O)COCCOCCNC(=O)COCCOCCNC(=O)CC[C@H](NC(=O)CCCCCCCCCCCCCCCCC(=O)O)C(=O)O)C(=O)N[C@@H](CCC(N)=O)C(=O)N[C@H](C(=O)N[C@@H](CC(C)C)C(=O)N[C@@H](CC(C)C)C(=O)N[C@@H](CCCCN)C(=O)N[C@@H](CCC(N)=O)C(=O)N[C@@H](C)C(=O)N[C@@H](CCCNC(=N)N)C(=O)N[C@@H](CCC(N)=O)C(=O)N[C@@H](CCCCN)C(=O)NC(C)(C)C(=O)N[C@@H](CCC(N)=O)C(=O)N[C@@H](CCCNC(=N)N)C(=O)N[C@@H](C)C(=O)N[C@@H](CCC(N)=O)C(=O)N[C@@H](C)C(=O)N[C@@H](CCC(=O)O)C(=O)N[C@@H](CCCCN)C(=O)N[C@@H](CC(N)=O)C(=O)N[C@@H](CCCCN)C(=O)N[C@@H](CCCNC(=N)N)C(=O)N[C@H](C(=O)N[C@@H](CC(C)C)C(=O)N[C@@H](CCC(=O)O)C(=O)N[C@@H](CCCNC(=N)N)C(=O)N[C@H](C(N)=O)C(C)C)[C@@H](C)CC)[C@@H](C)CC)[C@@H](C)CC)C(C)C)C(C)C
As for B3, the EC50 [nM], 0% HSA came to 0.11 nM and the EC50 [nM], 0.1% HSA amounted to 4.37 nM.

B4: SEQ ID NO: 127 (peptide)
peptide: IVLSLD[dV]PIKLK([AEEA-AEEA-γGlu-C18 diacid])QILLEQAKQK[Aib]QREQAEKNKRILERV-NH2
modifications: N-terminus assumed
SMILES: CC[C@H](C)[C@H](N)C(=O)N[C@H](C(=O)N[C@@H](CC(C)C)C(=O)N[C@@H](CO)C(=O)N[C@@H](CC(C)C)C(=O)N[C@@H](CC(=O)O)C(=O)N[C@@H](C(=O)N1CCC[C@H]1C(=O)N[C@H](C(=O)N[C@@H](CCCCN)C(=O)N[C@@H](CC(C)C)C(=O)N[C@@H](CCCCNC(=O)COCCOCCNC(=O)COCCOCCNC(=O)CC[C@H](NC(=O)CCCCCCCCCCCCCCCCC(=O)O)C(=O)O)C(=O)N[C@@H](CCC(N)=O)C(=O)N[C@H](C(=O)N[C@@H](CC(C)C)C(=O)N[C@@H](CC(C)C)C(=O)N[C@@H](CCC(=O)O)C(=O)N[C@@H](CCC(N)=O)C(=O)N[C@@H](C)C(=O)N[C@@H](CCCCN)C(=O)N[C@@H](CCC(N)=O)C(=O)N[C@@H](CCCCN)C(=O)NC(C)(C)C(=O)N[C@@H](CCC(N)=O)C(=O)N[C@@H](CCCNC(=N)N)C(=O)N[C@@H](CCC(=O)O)C(=O)N[C@@H](CCC(N)=O)C(=O)N[C@@H](C)C(=O)N[C@@H](CCC(=O)O)C(=O)N[C@@H](CCCCN)C(=O)N[C@@H](CC(N)=O)C(=O)N[C@@H](CCCCN)C(=O)N[C@@H](CCCNC(=N)N)C(=O)N[C@H](C(=O)N[C@@H](CC(C)C)C(=O)N[C@@H](CCC(=O)O)C(=O)N[C@@H](CCCNC(=N)N)C(=O)N[C@H](C(N)=O)C(C)C)[C@@H](C)CC)[C@@H](C)CC)[C@@H](C)CC)C(C)C)C(C)C
For B4, the EC50 [nM], 0% HSA was 0.16 nM and the EC50 [nM], 0.1% HSA amounted to 5.14 nM.

B5: SEQ ID NO: 126 (peptide)
peptide: IVLSLD[dV]PIKLK([AEEA-AEEA-γGlu-C18 diacid])QILLEQAKQK[Aib]QRAQAEKNKRILERV-NH2
modifications: N-terminus assumed
SMILES: CC[C@H](C)[C@H](N)C(=O)N[C@H](C(=O)N[C@@H](CC(C)C)C(=O)N[C@@H](CO)C(=O)N[C@@H](CC(C)C)C(=O)N[C@@H](CC(=O)O)C(=O)N[C@@H](C(=O)N1CCC[C@H]1C(=O)N[C@H](C(=O)N[C@@H](CCCCN)C(=O)N[C@@H](CC(C)C)C(=O)N[C@@H](CCCCNC(=O)COCCOCCNC(=O)COCCOCCNC(=O)CC[C@H](NC(=O)CCCCCCCCCCCCCCCCC(=O)O)C(=O)O)C(=O)N[C@@H](CCC(N)=O)C(=O)N[C@H](C(=O)N[C@@H](CC(C)C)C(=O)N[C@@H](CC(C)C)C(=O)N[C@@H](CCC(=O)O)C(=O)N[C@@H](CCC(N)=O)C(=O)N[C@@H](C)C(=O)N[C@@H](CCCCN)C(=O)N[C@@H](CCC(N)=O)C(=O)N[C@@H](CCCCN)C(=O)NC(C)(C)C(=O)N[C@@H](CCC(N)=O)C(=O)N[C@@H](CCCNC(=N)N)C(=O)N[C@@H](C)C(=O)N[C@@H](CCC(N)=O)C(=O)N[C@@H](C)C(=O)N[C@@H](CCC(=O)O)C(=O)N[C@@H](CCCCN)C(=O)N[C@@H](CC(N)=O)C(=O)N[C@@H](CCCCN)C(=O)N[C@@H](CCCNC(=N)N)C(=O)N[C@H](C(=O)N[C@@H](CC(C)C)C(=O)N[C@@H](CCC(=O)O)C(=O)N[C@@H](CCCNC(=N)N)C(=O)N[C@H](C(N)=O)C(C)C)[C@@H](C)CC)[C@@H](C)CC)[C@@H](C)CC)C(C)C)C(C)C
B5 gave an EC50 [nM], 0% HSA of 0.22 nM and an EC50 [nM], 0.1% HSA of 5.59 nM.

B6: SEQ ID NO: 13 (peptide)
peptide: FTLSLDVPTKIK([AEEA-AEEA-γGlu-C18 diacid])QILFKQQKQKKERQQAEKNKQLLEQI-NH2
modifications: N-terminus assumed
SMILES: CC[C@H](C)[C@H](NC(=O)[C@H](CCC(N)=O)NC(=O)[C@H](CCC(=O)O)NC(=O)[C@H](CC(C)C)NC(=O)[C@H](CC(C)C)NC(=O)[C@H](CCC(N)=O)NC(=O)[C@H](CCCCN)NC(=O)[C@H](CC(N)=O)NC(=O)[C@H](CCCCN)NC(=O)[C@H](CCC(=O)O)NC(=O)[C@H](C)NC(=O)[C@H](CCC(N)=O)NC(=O)[C@H](CCC(N)=O)NC(=O)[C@H](CCCNC(=N)N)NC(=O)[C@H](CCC(=O)O)NC(=O)[C@H](CCCCN)NC(=O)[C@H](CCCCN)NC(=O)[C@H](CCC(N)=O)NC(=O)[C@H](CCCCN)NC(=O)[C@H](CCC(N)=O)NC(=O)[C@H](CCC(N)=O)NC(=O)[C@H](CCCCN)NC(=O)[C@H](Cc1ccccc1)NC(=O)[C@H](CC(C)C)NC(=O)[C@@H](NC(=O)[C@H](CCC(N)=O)NC(=O)[C@H](CCCCNC(=O)COCCOCCNC(=O)COCCOCCNC(=O)CC[C@H](NC(=O)CCCCCCCCCCCCCCCCC(=O)O)C(=O)O)NC(=O)[C@@H](NC(=O)[C@H](CCCCN)NC(=O)[C@@H](NC(=O)[C@@H]1CCCN1C(=O)[C@@H](NC(=O)[C@H](CC(=O)O)NC(=O)[C@H](CC(C)C)NC(=O)[C@H](CO)NC(=O)[C@H](CC(C)C)NC(=O)[C@@H](NC(=O)[C@@H](N)Cc1ccccc1)[C@@H](C)O)C(C)C)[C@@H](C)O)[C@@H](C)CC)[C@@H](C)CC)C(N)=O
For the molecule B6, the EC50 [nM], 0% HSA amounted to 0.98 nM and the EC50 [nM], 0.1% HSA is 64.1 nM.
